In the Immune Epitope Database (IEDB):

Biological target: HLA-A*02:01
Experiment: IEDB peptide-MHC binding, purified MHC/competitive/radioactivity; ≥ and ≤ were set here for values at or beyond the usual limits of such assays
Settings: source organism: Homo sapiens

Compared with VLHSFTDAI, FVTWHRYHL is 2.3-fold higher in IC50: 0.417 µM for the first, 0.943 µM for the second.

First: TLDSQVMSL
Second: TLLVVMGTLV
The IC50 of the first is 2.2-fold lower: 0.161 µM for the first, 0.357 µM for the second. The first is the more potent here.

Compared with VTWHRYHLL, TLVALVGLFV is 5.6-fold lower in IC50: 0.161 µM for the first, 0.029 µM for the second. The second is the more potent here.

First: ALVGLFVLL
Second: LIGNESFAL
The IC50 of the first is 15-fold lower: 0.026 µM for the first, 0.385 µM for the second.

For QVMSLHNLV, the IC50 was 0.676 µM.

Biological target: HLA-A*02:01
Experiment: IEDB peptide-MHC binding, purified MHC/competitive/radioactivity; filed as Kd, often an IC50 or EC50 that approximates it; ≥ and ≤ were set here for values at or beyond the usual limits of such assays
Settings: source organism: Homo sapiens

NCERKKPPV and NCSVYDFFV cannot be ordered by Kd: ≥ 10 µM for the first, ≥ 10 µM for the second.

ATGRNECDV and CLERDLQRL cannot be ordered by Kd: ≥ 10 µM for the first, ≥ 10 µM for the second.

Compared with LLAFLQYRRL, TTQHWLGLL is higher in Kd: 1.52 µM for the first, ≥ 10 µM for the second.

First: QGRGQCTEV
Second: TLLVVMGTL
The Kd of the first is higher: ≥ 10 µM for the first, 2.63 µM for the second.

First: QMGRNSMKL
Second: SAANDPIFV
The Kd of the first is higher: ≥ 10 µM for the first, 4.54 µM for the second.

WLGLLGPNG and AARPDDPTL cannot be ordered by Kd: ≥ 10 µM for the first, ≥ 10 µM for the second.

First: ALDLAKKRV
Second: LLSCLGCKI
The Kd of the first is higher: ≥ 10 µM for the first, 3.57 µM for the second. The second binds more tightly here.

Compared with QLGYSYAIDL, YTPLMETHL is higher in Kd: 2.63 µM for the first, ≥ 10 µM for the second. The first binds more tightly here.

Compared with VCMTVDSLV, LLVVMGTLV is 5.3-fold lower in Kd: 7.14 µM for the first, 1.35 µM for the second. The second binds more tightly here.

ITTQHWLGL and GAQGQFPRV cannot be ordered by Kd: ≥ 10 µM for the first, ≥ 10 µM for the second.

AANDPIFVV and LAFLQYRRL cannot be ordered by Kd: ≥ 10 µM for the first, ≥ 10 µM for the second.

WMKRFNPPA and VALVGLFVL are within 1.5-fold of each other in Kd: 8.33 µM for the first, 7.14 µM for the second.

First: GTLVALVGL
Second: ALPYWNFAT
The Kd of the first is 3.4-fold higher: 4.54 µM for the first, 1.35 µM for the second.

LLSCLGCKIL and STFSFRNAL cannot be ordered by Kd: ≥ 10 µM for the first, ≥ 10 µM for the second.
